Experimental data taken from paper doi:10.1101/2022.09.15.508097 (bioRxiv, 2022).

How the values were obtained:
HAT-MBP-ZNF518B^770–987 = biological target: T1, HAT-MBP-ZNF518B^770–987 (human, UniProt Q9C0D4 770-987); assay: pull-down
T1 sequence: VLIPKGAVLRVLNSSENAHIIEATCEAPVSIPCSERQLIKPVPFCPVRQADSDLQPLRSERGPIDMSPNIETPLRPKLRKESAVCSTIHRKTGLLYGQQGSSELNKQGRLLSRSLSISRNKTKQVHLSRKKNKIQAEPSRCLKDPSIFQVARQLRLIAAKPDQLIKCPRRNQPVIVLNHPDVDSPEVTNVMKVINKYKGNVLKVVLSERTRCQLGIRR

TetR-EYFP-ZNF518B^WT = biological target: T2, TetR-EYFP-ZNF518B^WT (human, UniProt Q9C0D4 1-1074); assay: fluorescence microscopy-based interaction-trap
T2 sequence: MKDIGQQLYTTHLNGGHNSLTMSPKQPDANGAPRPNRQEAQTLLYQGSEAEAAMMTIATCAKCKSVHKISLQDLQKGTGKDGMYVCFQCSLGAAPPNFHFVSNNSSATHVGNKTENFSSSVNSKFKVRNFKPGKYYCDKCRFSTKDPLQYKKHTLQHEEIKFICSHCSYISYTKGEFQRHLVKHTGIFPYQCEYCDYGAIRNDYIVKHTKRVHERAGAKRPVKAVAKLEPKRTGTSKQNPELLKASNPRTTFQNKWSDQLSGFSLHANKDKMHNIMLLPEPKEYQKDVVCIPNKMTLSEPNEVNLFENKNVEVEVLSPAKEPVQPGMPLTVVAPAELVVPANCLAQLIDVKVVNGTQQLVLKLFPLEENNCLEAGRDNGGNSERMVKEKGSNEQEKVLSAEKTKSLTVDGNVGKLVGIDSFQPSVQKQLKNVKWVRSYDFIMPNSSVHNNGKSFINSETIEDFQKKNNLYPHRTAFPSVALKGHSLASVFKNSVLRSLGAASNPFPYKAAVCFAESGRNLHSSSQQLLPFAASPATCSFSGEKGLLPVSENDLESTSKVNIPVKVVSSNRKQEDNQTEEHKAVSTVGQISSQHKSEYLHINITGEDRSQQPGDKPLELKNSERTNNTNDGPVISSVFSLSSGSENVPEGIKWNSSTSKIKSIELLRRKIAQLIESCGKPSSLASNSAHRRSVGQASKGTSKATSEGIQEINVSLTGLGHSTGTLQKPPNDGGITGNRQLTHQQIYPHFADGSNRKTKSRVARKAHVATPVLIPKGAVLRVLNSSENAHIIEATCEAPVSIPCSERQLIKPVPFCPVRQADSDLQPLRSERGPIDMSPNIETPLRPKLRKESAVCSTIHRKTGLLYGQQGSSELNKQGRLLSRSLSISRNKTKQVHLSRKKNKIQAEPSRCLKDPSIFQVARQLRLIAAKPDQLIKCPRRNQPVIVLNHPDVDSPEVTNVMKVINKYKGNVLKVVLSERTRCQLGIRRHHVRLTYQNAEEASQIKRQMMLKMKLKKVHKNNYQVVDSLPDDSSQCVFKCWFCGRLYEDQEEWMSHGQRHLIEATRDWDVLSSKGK

[1] = biological target: T3, TetR-EYFP-ZNF518B^555–1074 (human, UniProt Q9C0D4 555-1074); assay: fluorescence microscopy-based interaction-trap
T3 sequence: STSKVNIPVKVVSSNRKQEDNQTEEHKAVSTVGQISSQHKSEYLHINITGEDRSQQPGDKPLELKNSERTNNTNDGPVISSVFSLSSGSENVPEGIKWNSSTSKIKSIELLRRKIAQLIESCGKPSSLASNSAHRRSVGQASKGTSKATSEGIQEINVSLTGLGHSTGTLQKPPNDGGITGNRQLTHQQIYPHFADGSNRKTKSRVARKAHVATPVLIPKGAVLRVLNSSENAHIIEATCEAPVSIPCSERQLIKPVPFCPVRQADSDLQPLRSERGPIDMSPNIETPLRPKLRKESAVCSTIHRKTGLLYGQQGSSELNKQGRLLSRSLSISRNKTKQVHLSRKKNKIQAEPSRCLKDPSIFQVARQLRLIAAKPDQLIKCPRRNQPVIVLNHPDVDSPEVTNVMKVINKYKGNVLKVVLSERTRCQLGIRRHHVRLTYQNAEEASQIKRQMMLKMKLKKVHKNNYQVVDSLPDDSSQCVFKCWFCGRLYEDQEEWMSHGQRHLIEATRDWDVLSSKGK

[2] = biological target: T4, TetR-EYFP-ZNF518B^878–1074 (human, UniProt Q9C0D4 878-1074); assay: fluorescence microscopy-based interaction-trap
T4 sequence: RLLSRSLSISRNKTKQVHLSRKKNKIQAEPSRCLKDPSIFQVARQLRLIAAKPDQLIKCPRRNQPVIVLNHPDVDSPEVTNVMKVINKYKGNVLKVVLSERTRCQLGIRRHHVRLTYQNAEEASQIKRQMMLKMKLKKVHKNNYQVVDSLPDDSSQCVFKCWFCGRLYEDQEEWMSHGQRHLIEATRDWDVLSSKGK

[3] = biological target: T5, TetR-EYFP-ZNF518B^878–987 (human, UniProt Q9C0D4 878-987); assay: fluorescence microscopy-based interaction-trap
T5 sequence: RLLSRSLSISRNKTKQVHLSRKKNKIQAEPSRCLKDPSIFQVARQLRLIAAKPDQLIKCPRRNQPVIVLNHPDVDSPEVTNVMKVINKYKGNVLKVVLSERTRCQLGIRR

[4] = biological target: T6, TetR-EYFP-ZNF518B^770–987 (human, UniProt Q9C0D4 770-987); assay: fluorescence microscopy-based interaction-trap
T6 sequence: T1 sequence

[5] = biological target: T7, TetR-EYFP-ZNF518B^344–1074 (human, UniProt Q9C0D4 344-1074); assay: fluorescence microscopy-based interaction-trap
T7 sequence: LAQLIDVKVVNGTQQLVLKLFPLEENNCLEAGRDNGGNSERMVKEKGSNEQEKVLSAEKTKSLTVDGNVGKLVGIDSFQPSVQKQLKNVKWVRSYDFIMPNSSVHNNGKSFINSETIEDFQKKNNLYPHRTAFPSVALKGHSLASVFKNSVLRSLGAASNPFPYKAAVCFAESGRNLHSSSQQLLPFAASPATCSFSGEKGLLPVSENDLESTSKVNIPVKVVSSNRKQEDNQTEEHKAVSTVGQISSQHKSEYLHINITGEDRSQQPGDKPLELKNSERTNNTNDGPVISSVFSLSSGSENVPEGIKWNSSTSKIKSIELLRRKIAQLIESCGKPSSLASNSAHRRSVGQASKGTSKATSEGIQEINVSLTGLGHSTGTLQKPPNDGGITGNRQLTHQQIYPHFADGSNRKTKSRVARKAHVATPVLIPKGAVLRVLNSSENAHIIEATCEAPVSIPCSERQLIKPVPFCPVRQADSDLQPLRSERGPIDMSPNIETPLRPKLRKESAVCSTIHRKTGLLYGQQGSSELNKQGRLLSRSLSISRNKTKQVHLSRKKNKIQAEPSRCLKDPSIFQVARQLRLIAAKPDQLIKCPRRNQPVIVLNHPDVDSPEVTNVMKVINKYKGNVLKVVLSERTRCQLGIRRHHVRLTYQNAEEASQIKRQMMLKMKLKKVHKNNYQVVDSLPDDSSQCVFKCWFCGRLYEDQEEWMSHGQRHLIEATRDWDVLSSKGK

[6] = biological target: T8, TetR-EYFP-ZNF518B^344–987 (human, UniProt Q9C0D4 344-987); assay: fluorescence microscopy-based interaction-trap
T8 sequence: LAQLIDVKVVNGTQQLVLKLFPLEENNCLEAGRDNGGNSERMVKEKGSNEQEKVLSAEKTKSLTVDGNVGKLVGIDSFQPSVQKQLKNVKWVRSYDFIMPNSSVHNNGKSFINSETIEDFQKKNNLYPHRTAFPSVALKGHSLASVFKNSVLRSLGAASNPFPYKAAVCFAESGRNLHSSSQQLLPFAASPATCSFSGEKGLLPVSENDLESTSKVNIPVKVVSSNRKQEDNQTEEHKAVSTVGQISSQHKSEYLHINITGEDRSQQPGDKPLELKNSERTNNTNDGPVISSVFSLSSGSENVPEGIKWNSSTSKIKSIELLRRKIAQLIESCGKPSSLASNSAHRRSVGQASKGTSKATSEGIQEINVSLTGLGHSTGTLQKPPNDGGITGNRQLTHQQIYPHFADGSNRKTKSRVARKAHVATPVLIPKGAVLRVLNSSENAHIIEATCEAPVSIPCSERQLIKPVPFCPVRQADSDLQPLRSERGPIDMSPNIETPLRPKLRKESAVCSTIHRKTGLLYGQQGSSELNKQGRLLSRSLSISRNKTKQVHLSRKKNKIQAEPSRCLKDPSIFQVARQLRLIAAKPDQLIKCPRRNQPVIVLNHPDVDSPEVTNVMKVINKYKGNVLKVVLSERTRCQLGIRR

B1: His6-GST-HP1γ (natural protein)
chain: not shown
binding result (HAT-MBP-ZNF518B^770–987): binds

B2: His6-GST-HP1β (natural protein)
chain: not shown
binding result (HAT-MBP-ZNF518B^770–987): binds

B3: Halo-HP1β (natural protein)
chain: not shown
modifications: Halo Tag TMR ligand on the Halo tag
% of cells with recruitment to alphoid^tetO (TetR-EYFP-ZNF518B^WT): 58%
% of cells with recruitment to alphoid^tetO [1]: > 75%
% of cells with recruitment to alphoid^tetO [2]: > 75%
% of cells with recruitment to alphoid^tetO [3]: > 75%
% of cells with recruitment to alphoid^tetO [4]: > 75%
% of cells with recruitment to alphoid^tetO [5]: > 75%
% of cells with recruitment to alphoid^tetO [6]: > 75%

B4: Halo-HP1γ (natural protein)
chain: not shown
modifications: Halo Tag TMR ligand on the Halo tag
% of cells with recruitment to alphoid^tetO [1]: > 75%
% of cells with recruitment to alphoid^tetO [2]: > 75%
% of cells with recruitment to alphoid^tetO [3]: > 75%
% of cells with recruitment to alphoid^tetO [4]: > 75%
% of cells with recruitment to alphoid^tetO [5]: > 75%
% of cells with recruitment to alphoid^tetO [6]: > 75%
